# Measured values: patent US20220402983A1 (Janssen / Centocor, published 2022)
# *1 amine or outer side, *2 acyl side, *3 side chain or, on linkers, in order; H or OH if unused. Bridges are numbered along the chain shown (N, C = ends). [ ]: non-standard residue; d: D form. The star is where a group is joined. Phe(4-OMe) = COc1ccc(C[C@H](N[*:1])C(=O)[*:2])cc1; Trp(7-Me) = Cc1cccc2c(C[C@H](N)C(=O)O)c[nH]c12; 2Nal = N[C@@H](Cc1ccc2ccccc2c1)C(=O)O; Propanoyl(3,3,3-F3) = O=C(CC(F)(F)F)*; AEF = NCCOc1ccc(C[C@H](N)C(=O)O)cc1; αMeF = C[C@](N)(Cc1ccccc1)C(=O)O; Pen = CC(C)(S)[C@H](N)C(=O)O; αMeK = C[C@](N)(CCCCN)C(=O)O; Thp = NC1(C(=O)O)CCOCC1; Abu = CC[C@H](N)C(=O)O; Propionyl = CCC(=O)*
# T1: human IL-23R (interleukin-23 receptor) (human, UniProt Q5VWK5 24-629)
# T1 sequence (looked up): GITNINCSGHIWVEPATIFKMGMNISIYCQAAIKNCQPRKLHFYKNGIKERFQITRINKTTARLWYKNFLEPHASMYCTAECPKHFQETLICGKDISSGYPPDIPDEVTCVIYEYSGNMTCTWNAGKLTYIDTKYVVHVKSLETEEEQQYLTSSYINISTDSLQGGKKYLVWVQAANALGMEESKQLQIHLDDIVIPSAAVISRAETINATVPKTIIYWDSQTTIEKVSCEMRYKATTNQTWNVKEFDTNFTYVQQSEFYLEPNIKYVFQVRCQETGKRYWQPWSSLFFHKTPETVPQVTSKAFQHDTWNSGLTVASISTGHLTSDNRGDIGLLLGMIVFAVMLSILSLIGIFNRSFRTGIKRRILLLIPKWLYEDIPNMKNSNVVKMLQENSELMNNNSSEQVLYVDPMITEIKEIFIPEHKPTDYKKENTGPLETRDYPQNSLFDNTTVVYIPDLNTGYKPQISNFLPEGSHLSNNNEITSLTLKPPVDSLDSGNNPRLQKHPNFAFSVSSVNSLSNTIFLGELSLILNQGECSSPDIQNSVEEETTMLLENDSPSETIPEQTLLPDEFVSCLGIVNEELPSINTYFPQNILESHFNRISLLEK
# B1: Compound No. 76 (peptide)
# peptide: Ac-[Pen]NT[Trp(7-Me)]K(Ac)[Pen][AEF][2Nal][αMeK]K(Ac)N[αMeF]-NH2
# modifications: disulfide 1-6
# SMILES: CC(=O)NCCCC[C@@H]1NC(=O)[C@H](Cc2c[nH]c3c(C)cccc23)NC(=O)[C@H]([C@@H](C)O)NC(=O)[C@H](CC(N)=O)NC(=O)[C@@H](NC(C)=O)C(C)(C)SSC(C)(C)[C@@H](C(=O)N[C@@H](Cc2ccc(OCCN)cc2)C(=O)N[C@@H](Cc2ccc3ccccc3c2)C(=O)N[C@@](C)(CCCCN)C(=O)N[C@@H](CCCCNC(C)=O)C(=O)N[C@@H](CC(N)=O)C(=O)N[C@@](C)(Cc2ccccc2)C(N)=O)NC1=O
# B2: Compound No. 77 (peptide)
# peptide: Ac-[dR][Pen]NT[Trp(7-Me)]K(Ac)[Pen][AEF][2Nal][Thp]EN[αMeF]-NH2
# modifications: disulfide 2-7
# SMILES: CC(=O)NCCCC[C@@H]1NC(=O)[C@H](Cc2c[nH]c3c(C)cccc23)NC(=O)[C@H]([C@@H](C)O)NC(=O)[C@H](CC(N)=O)NC(=O)[C@@H](NC(=O)[C@@H](CCCNC(=N)N)NC(C)=O)C(C)(C)SSC(C)(C)[C@@H](C(=O)N[C@@H](Cc2ccc(OCCN)cc2)C(=O)N[C@@H](Cc2ccc3ccccc3c2)C(=O)NC2(C(=O)N[C@@H](CCC(=O)O)C(=O)N[C@@H](CC(N)=O)C(=O)N[C@@](C)(Cc3ccccc3)C(N)=O)CCOCC2)NC1=O
# B3: Compound No. 75 (peptide)
# peptide: Ac-[Pen]NT[Trp(7-Me)]K(Ac)[Pen][AEF][2Nal][αMeK]K(Ac)N[Thp]-NH2
# modifications: disulfide 1-6
# SMILES: CC(=O)NCCCC[C@@H]1NC(=O)[C@H](Cc2c[nH]c3c(C)cccc23)NC(=O)[C@H]([C@@H](C)O)NC(=O)[C@H](CC(N)=O)NC(=O)[C@@H](NC(C)=O)C(C)(C)SSC(C)(C)[C@@H](C(=O)N[C@@H](Cc2ccc(OCCN)cc2)C(=O)N[C@@H](Cc2ccc3ccccc3c2)C(=O)N[C@@](C)(CCCCN)C(=O)N[C@@H](CCCCNC(C)=O)C(=O)N[C@@H](CC(N)=O)C(=O)NC2(C(N)=O)CCOCC2)NC1=O
# B4: Compound No. 4 (peptide)
# peptide: Propionyl-[dR][Pen]QTWQ[Pen][Phe(4-OMe)][2Nal][Thp]EN[Thp]-NH2
# modifications: disulfide 2-7
# SMILES: CCC(=O)N[C@H](CCCNC(=N)N)C(=O)N[C@@H]1C(=O)N[C@@H](CCC(N)=O)C(=O)N[C@@H]([C@@H](C)O)C(=O)N[C@@H](Cc2c[nH]c3ccccc23)C(=O)N[C@@H](CCC(N)=O)C(=O)N[C@H](C(=O)N[C@@H](Cc2ccc(OC)cc2)C(=O)N[C@@H](Cc2ccc3ccccc3c2)C(=O)NC2(C(=O)N[C@@H](CCC(=O)O)C(=O)N[C@@H](CC(N)=O)C(=O)NC3(C(N)=O)CCOCC3)CCOCC2)C(C)(C)SSC1(C)C
# B5: Compound No. 65 (peptide)
# peptide: Ac-[Abu]QT[Trp(7-Me)]K(Ac)C[AEF][2Nal][αMeK]K(Ac)N[dL]-NH2
# modifications: thioether 1-6
# B6: Compound No. 64 (peptide)
# peptide: Ac-[Abu]QT[Trp(7-Me)]K(Ac)C[AEF][2Nal][αMeK]K(Ac)N[dK]-NH2
# modifications: thioether 1-6
# B7: Compound No. 66 (peptide)
# peptide: Ac-[Abu]QT[Trp(7-Me)]K(Ac)C[AEF][2Nal][αMeK]K(Ac)N[αMeF]-NH2
# modifications: thioether 1-6
# B8: Compound No. 5 (peptide)
# peptide: {Propanoyl(3,3,3-F3)}-[dR][Pen]QTWQ[Pen][AEF][2Nal][Thp]EN[Thp]-NH2
# modifications: disulfide 2-7
# SMILES: C[C@@H](O)[C@@H]1NC(=O)[C@H](CCC(N)=O)NC(=O)[C@@H](NC(=O)[C@@H](CCCNC(=N)N)NC(=O)CC(F)(F)F)C(C)(C)SSC(C)(C)[C@@H](C(=O)N[C@@H](Cc2ccc(OCCN)cc2)C(=O)N[C@@H](Cc2ccc3ccccc3c2)C(=O)NC2(C(=O)N[C@@H](CCC(=O)O)C(=O)N[C@@H](CC(N)=O)C(=O)NC3(C(N)=O)CCOCC3)CCOCC2)NC(=O)[C@H](CCC(N)=O)NC(=O)[C@H](Cc2c[nH]c3ccccc23)NC1=O
# B9: Compound No. 92 (peptide)
# peptide: Ac-[dR][Pen]NT[Trp(7-Me)]K(Ac)[Pen][AEF][2Nal][Thp]EN[Thp]-NH2
# modifications: disulfide 2-7
# SMILES: CC(=O)NCCCC[C@@H]1NC(=O)[C@H](Cc2c[nH]c3c(C)cccc23)NC(=O)[C@H]([C@@H](C)O)NC(=O)[C@H](CC(N)=O)NC(=O)[C@@H](NC(=O)[C@@H](CCCNC(=N)N)NC(C)=O)C(C)(C)SSC(C)(C)[C@@H](C(=O)N[C@@H](Cc2ccc(OCCN)cc2)C(=O)N[C@@H](Cc2ccc3ccccc3c2)C(=O)NC2(C(=O)N[C@@H](CCC(=O)O)C(=O)N[C@@H](CC(N)=O)C(=O)NC3(C(N)=O)CCOCC3)CCOCC2)NC1=O
# Target: T1, human IL-23R (interleukin-23 receptor)
# Assay: cell-based or functional assay
row,"NK Cell Assay (nM), IC50, IFN-gamma after IL-23 and IL-18 [nM]",Binder
1,4.01,B1
2,2.33,B2
3,2.69,B3
4,32.1,B4
5,6.03,B5
6,5.44,B6
7,13.1,B7
8,10.3,B8
9,1.46,B9

# Target: T1, human IL-23R (interleukin-23 receptor)
# Assay: cell-based or functional assay
# Remark: another data set of the same source
PBMC pSTAT3 IC50 (nM),"pStat3 HTRF (nM), IC50, DB cells IL23R pSTAT3 cell assay [nM]",Binder
11,1.5,B1
6.4,0.353,B2
8.9,0.787,B3
,4.17,B4
,0.966,B5
,0.889,B6
,2.27,B7
4.7,2.94,B8
3.3,0.206,B9
